Article PMC12529927, “Functional microRNA targeting without seed pairing”

Assays:
[1] = target: T1, AGO2 (loaded with guide RNA) (Homo sapiens, UniProt Q9UKV8 1-859); experiment: filter binding; no boost over m9_22; 18 mM HEPES pH 7.4, 100 mM K-acetate, 1 mM Mg-acetate, 0.01% IGEPAL, 0.01 mg/mL yeast tRNA, 5 mM DTT, BSA, glycerol, 37 C, 4 h, 1-5 pM target; kinetics with 10; conditions: protein: recombinant, tags: 3xFLAG-SUMOEu1 (removed by SENPEuB cleavage), label: 32P target, offset +3
[2] = target: T1, AGO2 (loaded with guide RNA); experiment: filter binding; modest boost over m9_22; 18 mM HEPES pH 7.4, 100 mM K-acetate, 1 mM Mg-acetate, 0.01% IGEPAL, 0.01 mg/mL yeast tRNA, 5 mM DTT, BSA, glycerol, 37 C, 4 h, 1-5 pM target; kinetics with 10; conditions: protein: recombinant, tags: 3xFLAG-SUMOEu1 (removed by SENPEuB cleavage), label: 32P target, offset +3
[3] = target: T1, AGO2 (loaded with guide RNA); experiment: filter binding; modest boost over m11_23; 18 mM HEPES pH 7.4, 100 mM K-acetate, 1 mM Mg-acetate, 0.01% IGEPAL, 0.01 mg/mL yeast tRNA, 5 mM DTT, BSA, glycerol, 37 C, 4 h, 1-5 pM target; kinetics with 10; conditions: protein: recombinant; tags: 3xFLAG-SUMOEu1 (removed by SENPEuB cleavage); label: 32P target; g11-23 and g2-6 paired, offset +2
[4] = target: T1, AGO2 (loaded with guide RNA); experiment: filter binding; length-matched; slightly weaker than m2_6; 18 mM HEPES pH 7.4, 100 mM K-acetate, 1 mM Mg-acetate, 0.01% IGEPAL, 0.01 mg/mL yeast tRNA, 5 mM DTT, BSA, glycerol, 37 C, 4 h, 1-5 pM target; kinetics with 10; conditions: protein: recombinant; tags: 3xFLAG-SUMOEu1 (removed by SENPEuB cleavage); label: 32P target; g11-23 and g2-5 paired, offset +2

T1 sequence (Q9UKV8 whole entry): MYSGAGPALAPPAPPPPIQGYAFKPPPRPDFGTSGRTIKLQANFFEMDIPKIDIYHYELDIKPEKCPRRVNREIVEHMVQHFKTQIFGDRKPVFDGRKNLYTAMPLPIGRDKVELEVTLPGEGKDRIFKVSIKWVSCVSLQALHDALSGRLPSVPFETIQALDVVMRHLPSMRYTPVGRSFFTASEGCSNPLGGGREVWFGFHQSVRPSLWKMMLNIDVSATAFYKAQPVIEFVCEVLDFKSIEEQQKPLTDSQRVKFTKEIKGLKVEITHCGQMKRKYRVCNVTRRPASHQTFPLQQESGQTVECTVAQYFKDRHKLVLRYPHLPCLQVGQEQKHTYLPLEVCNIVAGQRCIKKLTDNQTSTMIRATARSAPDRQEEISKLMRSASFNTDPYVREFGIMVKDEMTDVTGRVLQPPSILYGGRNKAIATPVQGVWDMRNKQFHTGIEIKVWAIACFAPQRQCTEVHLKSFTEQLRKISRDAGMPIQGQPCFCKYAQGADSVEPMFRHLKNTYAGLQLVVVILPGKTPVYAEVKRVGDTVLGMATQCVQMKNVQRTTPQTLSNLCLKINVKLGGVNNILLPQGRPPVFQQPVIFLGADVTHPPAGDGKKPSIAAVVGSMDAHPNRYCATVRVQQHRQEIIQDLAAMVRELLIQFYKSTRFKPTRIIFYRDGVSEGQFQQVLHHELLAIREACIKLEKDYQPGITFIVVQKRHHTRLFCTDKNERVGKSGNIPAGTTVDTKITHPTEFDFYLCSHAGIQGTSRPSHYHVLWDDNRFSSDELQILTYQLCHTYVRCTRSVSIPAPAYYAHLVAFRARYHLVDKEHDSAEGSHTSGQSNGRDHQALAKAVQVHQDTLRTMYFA

B1: miR-124 mut / m9_22|+3|m2 (mixed)
RNA 1: UCUGGCUCGCGGUGAAUGCCAA
RNA 2: UUUUUUGGCAUUCACCGCUUUUUUUUUGUUUU
modifications: 5'-phosphate guide
B1: binds ([1]; g9-22 and g2 paired).

B2: miR-124 mut / m9_22|+3|m2_3 (mixed)
RNA 1: UCUGGCUCGCGGUGAAUGCCAA
RNA 2: UUUUUUGGCAUUCACCGCUUUUUUUUAGUUUU
modifications: 5'-phosphate guide
B2: binds ([1]; g9-22 and g2-3 paired).

B3: miR-124 mut / m9_22|+3|m2_5 (mixed)
RNA 1: UCUGGCUCGCGGUGAAUGCCAA
RNA 2: UUUUUUGGCAUUCACCGCUUUUUUCCAGUUUU
modifications: 5'-phosphate guide
B3: binds ([2]; g9-22 and g2-5 paired).

B4: miR-124 mut / m9_22|+3|m2_4 (mixed)
RNA 1: UCUGGCUCGCGGUGAAUGCCAA
RNA 2: UUUUUUGGCAUUCACCGCUUUUUUUCAGUUUU
modifications: 5'-phosphate guide
B4: binds ([2]; g9-22 and g2-4 paired).

B5: miR-155 mut / m11_23|+2|m2_6 (mixed)
RNA 1: UUCGUGCUAAUCGUGAUAGGGGU
RNA 2: UUUUACCCCUAUCACGACCUUUUCACGAUUUU
modifications: 5'-phosphate guide
B5: binds [3].

B6: miR-155 mut / m11_23|+2|m2_5 (repeat) (mixed)
RNA 1: UUCGUGCUAAUCGUGAUAGGGGU
RNA 2: UUUUACCCCUAUCACGACCUUUUUACGAUUUU
modifications: 5'-phosphate guide
B6: binds [4].
